Biological target: 1-32–captured Pentamer (HCMV Pentamer bound by 1-32 IgG) (human cytomegalovirus (strain Towne) | human) (UniProt P17176)
Assay: BLI

B1: untagged NRP2 (receptor)
chain: RGQPDPPCGGRLNSKDAGYITSPGYPQDYPSHQNCEWIVYAPEPNQKIVLNFNPHFEIEKHDCKYDFIEIRDGDSESADLLGKHCGNIAPPTIISSGSMLYIKFTSDYARQGAGFSLRYEIFKTGSEDCSKNFTSPNGTIESPGFPEKYPHNLDCTFTILAKPKMEIILQFLIFDLEHDPLQVGEGDCKYDWLDIWDGIPHVGPLIGKYCGTKTPSELRSSTGILSLTFHTDMAVAKDGFSARYYLVHQEPLENFQCNVPLGMESGRIANEQISASSTYSDGRWTPQQSRLHGDDNGWTPNLDSNKEYLQVDLRFLTMLTAIATQGAISRETQNGYYVKSYKLEVSTNGEDWMVYRHGKNHKVFQANNDATEVVLNKLHAPLLTRFVRIRPQTWHSGIALRLELFGCRVTDAPCSNMLGMLSGLIADSQISASSTQEYLWSPSAARLVSSRSGWFPRIPQAQPGEEWLQVDLGTPKTVKGVIIQGARGGDSITAVEARAFVRKFKVSYSLNGKDWEYIQDPRTQQPKLFEGNMHYDTPDIRRFDPIPAQYVRVYPERWSPAGIGMRLEVLGCDWTDSKPTVETLGPTVKSEETTTPYPTEEEATECGENCSFEDDKDLQLPSGFNCNFDFLEEPCGWMYDHAKWLRTTWASSSSPNDRTFPDDRNFLRLQSDSQREGQYARLISPPVHLPRSPVCMEFQYQATGGRGVALQVVREASQESKLLWVIREDQGGEWKHGRIILPSYDMEYQIVFEGVIGKGRSGEIAIDDIRISTDVPLENCMEPISAFAGENFKVDIPEIHEREGYEDEIDDEYEVDWSNSSSATSGSGAPSTDKEKSWLYTLDPILITIIAMSSLGVLLGATCAGLLLYCTCSYSGLSSRSCTTLENYNFELYDGLKHKVKMNHQKCCSEA
Q: How did the Kd turn out when B1 was run?
A: Its Kd is 133 nM.

From publication PMC8916728
